Values quoted from earlier work, collected in US20020192216A1, “Therapeutic use” (priority 1999, published 2002).

Tested on: all three mammalian Hedgehog proteins
Details: compared with Ptc

B1: HIP: membrane glycoprotein that binds Hedgehog proteins and attenuates Hedgehog signalling; GenBank AF116865 (protein, UniProt Q7TN16 18-700, looked up)
Hedgehog-interacting protein: FFEGDAKFGERNEGSGARRRRCLNGNPPKRLKRRDRRVMSQLELLSGGEILCGGFYPRVSCCLQSDSPGLGRLENKIFSATNNSECSRLLEEIQCAPCSPHSQSLFYTPERDVLDGDLALPLLCKDYCKEFFYTCRGHIPGLLQTTADEFCFYYARKDAGLCFPDFPRKQVRGPASNYLGQMEDYEKVGGISRKHKHNCLCVQEVMSGLRQPVSAVHSGDGSHRLFILEKEGYVKILTPEGELFKEPYLDIHKLVQSGIKGGDERGLLSLAFHPNYKKNGKLYVSYTTNQERWAIGPHDHILRVVEYTVSRKNPHQVDVRTARVFLEVAELHRKHLGGQLLFGPDGFLYIILGDGMITLDDMEEMDGLSDFTGSVLRLDVDTDMCNVPYSIPRSNPHFNSTNQPPEVFAHGLHDPGRCAVDRHPTDININLTILCSDSNGKNRSSARILQIIKGRDYESEPSLLEFKPFSNGPLVGGFVYRGCQSERLYGSYVFGDRNGNFLTLQQSPVTKQWQEKPLCLGASSSCRGYFSGHILGFGEDELGEVYILSSSKSMTQTHNGKLYKIVDPKRPLMPEECRVTVQPAQPLTSDCSRLCRNGYYTPTGKCCCSPGWEGDFCRIAKCEPACRHGGVCVRPNKCLCKKGYLGPQCEQVDRNVRRVTRAGILDQIIDMTSYLLDLTSYIV
affinity for Hedgehog proteins: comparable to that of Ptc
